We go through 15 variants from IntAct's records for PubMed 31515488.

First the molecules themselves.
B1: Embryonal Fyn-associated substrate (Homo sapiens), O43281 (parent)
chain: MAIATSTQLARALYDNTAESPQELSFRRGDVLRVLQREGAGGLDGWCLCSLHGQQGIVPANRVKLLPAGPAPKPSLSPASPAQPGSPYPAPDHSNEDQEVYVVPPPARPCPTSGPPAGPCPPSPDLIYKIPRASGTQLAAPRDALEVYDVPPTALRVPSSGPYDCPASFSHPLTRVAPQPPGEDDAPYDVPLTPKPPAELEPDLEWEGGREPGPPIYAAPSNLKRASALLNLYEAPEELLADGEGGGTDEGIYDVPLLGPEAPPSPEPPGALASHDQDTLAQLLARSPPPPHRPRLPSAESLSRRPLPALPVPEAPSPSPVPSPAPGRKGSIQDRPLPPPPPRLPGYGGPKVEGDPEGREMEDDPAGHHNEYEGIPMAEEYDYVHLKGMDKAQGSRPPDQACTGDPELPERGMPAPQEALSPGEPLVVSTGDLQLLYFYAGQCQSHYSALQAAVAALMSSTQANQPPRLFVPHSKRVVVAAHRLVFVGDTLGRLAASAPLRAQVRAAGTALGQALRATVLAVKGAALGYPSSPAIQEMVQCVTELAGQALQFTTLLTSLAP
B2: Septin-12 (Homo sapiens), Q8IYM1 (parent)
chain: MDPLRRSPSPCLSSQPSSPSTPPCEMLGPVGIEAVLDQLKIKAMKMGFEFNIMVVGQSGLGKSTMVNTLFKSKVWKSNPPGLGVPTPQTLQLHSLTHVIEEKGVKLKLTVTDTPGFGDQINNDNCWDPILGYINEQYEQYLQEEILITRQRHIPDTRVHCCVYFVPPTGHCLRPLDIEFLQRLCRTVNVVPVIARADSLTMEEREAFRRRIQQNLRTHCIDVYPQMCFDEDINDKILNSKLRDRIPFAVVGADQEHLVNGRCVLGRKTKWGIIEVENMAHCEFPLLRDLLIRSHLQDLKDITHNIHYENYRVIRLNESHLLPRGPGWVNLAPASPGQLTTPRTFKVCRGAHDDSDDEF
partner: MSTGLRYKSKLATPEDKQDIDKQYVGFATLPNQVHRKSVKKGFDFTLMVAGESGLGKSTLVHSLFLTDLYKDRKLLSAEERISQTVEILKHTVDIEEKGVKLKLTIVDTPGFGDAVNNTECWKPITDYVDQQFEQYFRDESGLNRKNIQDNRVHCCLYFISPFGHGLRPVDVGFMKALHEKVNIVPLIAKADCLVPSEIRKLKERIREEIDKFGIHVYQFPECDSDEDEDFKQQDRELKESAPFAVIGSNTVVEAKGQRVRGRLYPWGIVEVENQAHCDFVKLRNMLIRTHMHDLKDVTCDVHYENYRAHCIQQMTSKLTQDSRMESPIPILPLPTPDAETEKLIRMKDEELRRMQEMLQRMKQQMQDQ
B3: Flavin-containing monooxygenase 3 (Homo sapiens), P31513 (parent)
chain: MGKKVAIIGAGVSGLASIRSCLEEGLEPTCFEKSNDIGGLWKFSDHAEEGRASIYKSVFSNSSKEMMCFPDFPFPDDFPNFMHNSKIQEYIIAFAKEKNLLKYIQFKTFVSSVNKHPDFATTGQWDVTTERDGKKESAVFDAVMVCSGHHVYPNLPKESFPGLNHFKGKCFHSRDYKEPGVFNGKRVLVVGLGNSGCDIATELSRTAEQVMISSRSGSWVMSRVWDNGYPWDMLLVTRFGTFLKNNLPTAISDWLYVKQMNARFKHENYGLMPLNGVLRKEPVFNDELPASILCGIVSVKPNVKEFTETSAIFEDGTIFEGIDCVIFATGYSFAYPFLDESIIKSRNNEIILFKGVFPPLLEKSTIAVIGFVQSLGAAIPTVDLQSRWAAQVIKGTCTLPSMEDMMNDINEKMEKKRKWFGKSETIQTDYIVYMDELSSFIGAKPNIPWLFLTDPKLAMEVYFGPCSPYQFRLVGPGQWPGARNAILTQWDRSLKPMQTRVVGRLQKPCFFFHWLKLFAIPILLIAVFLVLT
partner: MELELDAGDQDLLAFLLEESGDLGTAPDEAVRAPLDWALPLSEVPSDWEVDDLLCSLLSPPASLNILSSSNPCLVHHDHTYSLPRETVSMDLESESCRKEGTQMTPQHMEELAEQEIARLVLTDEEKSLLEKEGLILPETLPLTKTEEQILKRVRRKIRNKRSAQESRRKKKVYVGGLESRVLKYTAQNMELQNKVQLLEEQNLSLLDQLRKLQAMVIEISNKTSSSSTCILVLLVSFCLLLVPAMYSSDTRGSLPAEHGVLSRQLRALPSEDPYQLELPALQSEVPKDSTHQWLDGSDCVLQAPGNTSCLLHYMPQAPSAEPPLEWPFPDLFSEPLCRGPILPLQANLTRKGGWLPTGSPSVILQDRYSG
B4: Heat shock factor protein 2 (Homo sapiens), Q03933 (parent)
chain: MKQSSNVPAFLSKLWTLVEETHTNEFITWSQNGQSFLVLDEQRFAKEILPKYFKHNNMASFVRQLNMYGFRKVVHIDSGIVKQERDGPVEFQHPYFKQGQDDLLENIKRKVSSSKPEENKIRQEDLTKIISSAQKVQIKQETIESRLSELKSENESLWKEVSELRAKHAQQQQVIRKIVQFIVTLVQNNQLVSLKRKRPLLLNTNGAQKKNLFQHIVKEPTDNHHHKVPHSRTEGLKPRERISDDIIIYDVTDDNADEENIPVIPETNEDVISDPSNCSQYPDIVIVEDDNEDEYAPVIQSGEQNEPARESLSSGSDGSSPLMSSAVQLNGSSSLTSEDPVTMMDSILNDNINLLGKVELLDYLDSIDCSLEDFQAMLSGRQFSIDPDLLVDLFTSSVQMNPTDYINNTKSENKGLETTKNNVVQPVSEEGRKSKSKPDKQLIQYTAFPLLAFLDGNPASSVEQASTTASSEVLSSVDKPIEVDELLDSSLDPEPTQSKLVRLEPLTEAEASEATLFYLCELAPAPLDSDMPLLDS

Variants of B1 are the subject of one test. As to conditions: with blk_human BLK.
As for S265F, the “effect of a mutation on the interaction” value is listed as “with no effect”. For the variant A140D, the “effect of a mutation on the interaction” value is listed as “with no effect”.

Variants of B1 are the subject of the next test. As to conditions: with nck2_human NCK2, O43639.
Sequence of nck2_human NCK2, O43639 (O43639 whole entry): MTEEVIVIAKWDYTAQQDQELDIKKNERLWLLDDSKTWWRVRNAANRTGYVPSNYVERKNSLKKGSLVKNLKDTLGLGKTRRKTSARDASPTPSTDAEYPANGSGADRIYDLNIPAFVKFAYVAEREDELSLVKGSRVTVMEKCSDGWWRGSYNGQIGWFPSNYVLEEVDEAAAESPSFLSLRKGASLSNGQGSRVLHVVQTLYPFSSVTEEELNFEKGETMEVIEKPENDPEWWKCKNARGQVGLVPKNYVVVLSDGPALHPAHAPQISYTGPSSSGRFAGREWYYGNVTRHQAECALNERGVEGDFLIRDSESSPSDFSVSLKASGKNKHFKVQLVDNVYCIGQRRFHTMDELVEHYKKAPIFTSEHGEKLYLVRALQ
Take S265F: the “effect of a mutation on the interaction” value is “with no effect”.

Take A140D: the “effect of a mutation on the interaction” value is given as “with no effect”.

The variants in a further test derive from B1. The note with it: with abi2_human ABI2, Q9NYB9.
Sequence of abi2_human ABI2, Q9NYB9 (Q9NYB9 whole entry): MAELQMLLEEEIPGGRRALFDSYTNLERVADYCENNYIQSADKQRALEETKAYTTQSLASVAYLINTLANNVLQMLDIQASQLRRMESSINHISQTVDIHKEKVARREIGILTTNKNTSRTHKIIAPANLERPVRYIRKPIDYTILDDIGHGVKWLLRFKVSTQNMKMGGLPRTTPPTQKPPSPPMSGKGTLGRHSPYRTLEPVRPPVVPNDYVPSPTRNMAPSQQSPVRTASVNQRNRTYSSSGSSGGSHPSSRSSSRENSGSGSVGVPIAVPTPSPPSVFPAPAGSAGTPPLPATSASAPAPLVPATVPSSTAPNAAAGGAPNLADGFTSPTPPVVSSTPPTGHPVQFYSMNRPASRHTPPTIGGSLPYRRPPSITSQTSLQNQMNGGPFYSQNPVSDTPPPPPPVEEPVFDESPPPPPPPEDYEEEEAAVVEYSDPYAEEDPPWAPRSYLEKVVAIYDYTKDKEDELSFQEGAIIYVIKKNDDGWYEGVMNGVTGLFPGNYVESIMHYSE
As to S265F, the “effect of a mutation on the interaction” value is recorded as “with no effect”. Regarding A140D, the “effect of a mutation on the interaction” value is given as “with no effect”.

Variants of B1 are the subject of another test. The note with it: with fyn_human FYN.
S265F: the “effect of a mutation on the interaction” value is reported as “with no effect”. On the same count and under the same terms, as for A140D, the entry is “with no effect”.

Variants of B2 are the subject of another test. The note with it: with sept5_human SEPTIN5, Q99719.
Consider D197N, for which the “effect of a mutation on the interaction” value is given as “disrupting interaction strength”. The same measure, in the same setting: as for Q213R, the entry is “disrupting interaction strength”; as for G169E, “disrupting interaction strength”; as for T111K, “disrupting interaction strength”. Still for that read-out and setting: as for R311C, the entry is “with no effect”; as for K73N, “with no effect”; as for V263D, “disrupting interaction strength”. On the same count and under the same terms, as for V162M, the entry is “disrupting interaction strength”; as for C184S, “with no effect”; as for R204Q, “disrupting interaction strength”.

Variants of B3 are the subject of a further test. As to conditions: with creb3_human CREB3, O43889.
With E158K, the “effect of a mutation on the interaction” value is “with no effect”. The same measure, in the same setting: as for G180V, the entry is “with no effect”.

A further test covers variants of B4. The note with it: with mtus2_human MTUS2, Q5JR59.
Sequence of mtus2_human MTUS2, Q5JR59 (Q5JR59 whole entry): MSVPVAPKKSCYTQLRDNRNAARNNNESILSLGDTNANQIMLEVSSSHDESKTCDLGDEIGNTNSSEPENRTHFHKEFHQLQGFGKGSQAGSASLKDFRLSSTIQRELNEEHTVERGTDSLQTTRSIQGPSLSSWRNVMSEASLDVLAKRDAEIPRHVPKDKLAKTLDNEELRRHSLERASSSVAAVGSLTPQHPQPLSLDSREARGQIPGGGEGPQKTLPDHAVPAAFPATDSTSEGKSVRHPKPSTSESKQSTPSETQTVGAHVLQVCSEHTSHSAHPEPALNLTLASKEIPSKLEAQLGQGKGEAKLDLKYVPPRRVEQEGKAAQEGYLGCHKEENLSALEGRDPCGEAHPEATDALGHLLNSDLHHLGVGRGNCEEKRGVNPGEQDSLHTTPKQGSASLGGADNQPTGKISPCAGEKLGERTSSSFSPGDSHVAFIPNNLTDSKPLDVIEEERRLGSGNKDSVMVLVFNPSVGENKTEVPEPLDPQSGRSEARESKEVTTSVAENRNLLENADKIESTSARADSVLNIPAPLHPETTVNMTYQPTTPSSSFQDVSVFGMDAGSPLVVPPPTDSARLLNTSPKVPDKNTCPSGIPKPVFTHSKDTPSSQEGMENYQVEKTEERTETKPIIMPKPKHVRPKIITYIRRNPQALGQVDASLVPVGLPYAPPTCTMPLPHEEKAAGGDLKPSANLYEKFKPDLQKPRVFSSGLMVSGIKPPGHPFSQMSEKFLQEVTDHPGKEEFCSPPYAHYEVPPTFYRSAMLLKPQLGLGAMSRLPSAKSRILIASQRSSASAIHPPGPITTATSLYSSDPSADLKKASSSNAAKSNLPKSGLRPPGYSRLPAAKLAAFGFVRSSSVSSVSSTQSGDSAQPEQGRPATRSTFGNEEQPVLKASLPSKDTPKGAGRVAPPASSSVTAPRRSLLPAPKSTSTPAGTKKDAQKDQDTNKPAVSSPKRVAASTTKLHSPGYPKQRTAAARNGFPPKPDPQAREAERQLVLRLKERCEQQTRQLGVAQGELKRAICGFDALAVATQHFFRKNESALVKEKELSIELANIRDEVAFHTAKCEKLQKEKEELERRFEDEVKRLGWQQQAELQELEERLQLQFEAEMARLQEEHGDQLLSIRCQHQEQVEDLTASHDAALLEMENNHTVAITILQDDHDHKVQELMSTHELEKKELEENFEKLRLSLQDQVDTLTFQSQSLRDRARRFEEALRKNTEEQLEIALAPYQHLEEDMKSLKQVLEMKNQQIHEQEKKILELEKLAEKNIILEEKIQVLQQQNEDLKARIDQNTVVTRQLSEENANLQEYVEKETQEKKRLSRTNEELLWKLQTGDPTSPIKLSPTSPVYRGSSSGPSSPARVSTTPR
As for Q34H, the “effect of a mutation on the interaction” value is reported as “with no effect”.

In the next test the parent is B4. As to conditions: with nup62_human NUP62, P37198.
Sequence of nup62_human NUP62, P37198 (P37198 whole entry): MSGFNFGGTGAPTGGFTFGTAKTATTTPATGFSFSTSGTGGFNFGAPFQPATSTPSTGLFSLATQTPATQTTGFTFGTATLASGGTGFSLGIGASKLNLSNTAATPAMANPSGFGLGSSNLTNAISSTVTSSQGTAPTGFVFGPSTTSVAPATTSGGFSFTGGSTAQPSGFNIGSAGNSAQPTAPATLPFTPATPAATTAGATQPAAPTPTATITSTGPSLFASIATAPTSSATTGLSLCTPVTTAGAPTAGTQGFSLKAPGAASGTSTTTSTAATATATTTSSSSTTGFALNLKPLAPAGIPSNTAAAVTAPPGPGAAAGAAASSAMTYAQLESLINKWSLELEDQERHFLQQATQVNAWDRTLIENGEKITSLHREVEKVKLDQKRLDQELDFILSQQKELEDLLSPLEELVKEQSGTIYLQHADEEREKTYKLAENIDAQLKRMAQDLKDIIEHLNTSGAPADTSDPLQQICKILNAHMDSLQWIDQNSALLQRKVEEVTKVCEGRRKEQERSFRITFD
Regarding Q34H, the “effect of a mutation on the interaction” value is on record as “with no effect”.

In a further test the parent is B4. As to conditions: with wdr5_human WDR5, P61964.
As to Q34H, the “effect of a mutation on the interaction” value is “with no effect”.

The variants in a further test derive from B4. The note with it: with tpm3_human TPM3, P06753.
Sequence of tpm3_human TPM3, P06753 (P06753 whole entry): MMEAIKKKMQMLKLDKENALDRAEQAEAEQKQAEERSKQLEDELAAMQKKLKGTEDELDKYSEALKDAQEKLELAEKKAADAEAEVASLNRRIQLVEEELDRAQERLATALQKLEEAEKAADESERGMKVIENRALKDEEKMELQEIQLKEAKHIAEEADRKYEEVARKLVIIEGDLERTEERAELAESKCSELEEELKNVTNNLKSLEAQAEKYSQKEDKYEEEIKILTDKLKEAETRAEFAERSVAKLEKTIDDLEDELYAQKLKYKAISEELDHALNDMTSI
Consider Q34H, for which the “effect of a mutation on the interaction” value was “with no effect”.
